{"source": "patent US20150368652A1", "biological_target": "Kcna2 protein (Kv1.2), endogenous in rat dorsal root ganglion neurons (rat) (UniProt P63142)", "sequence (P63142 whole entry)": "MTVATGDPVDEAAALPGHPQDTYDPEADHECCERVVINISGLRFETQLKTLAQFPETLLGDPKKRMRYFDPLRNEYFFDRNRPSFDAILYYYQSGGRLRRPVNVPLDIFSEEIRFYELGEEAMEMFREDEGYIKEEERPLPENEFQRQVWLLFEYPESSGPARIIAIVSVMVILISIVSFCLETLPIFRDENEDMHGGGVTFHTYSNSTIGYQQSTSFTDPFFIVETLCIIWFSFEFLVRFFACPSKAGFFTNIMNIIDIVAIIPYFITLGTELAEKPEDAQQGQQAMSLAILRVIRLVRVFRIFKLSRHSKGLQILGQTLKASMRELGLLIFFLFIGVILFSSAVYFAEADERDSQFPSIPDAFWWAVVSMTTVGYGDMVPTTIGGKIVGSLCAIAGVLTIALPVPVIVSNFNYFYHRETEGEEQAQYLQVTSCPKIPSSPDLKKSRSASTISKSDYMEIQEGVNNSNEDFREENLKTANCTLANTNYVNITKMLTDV", "test": "cell-based or functional assay", "data": [{"substance": "maurotoxin (from UniProt P80719 1-34) (peptide)", "values": [{"measurement": "total voltage-gated potassium current retained at +50 mV after 100 nM MTX, large DRG neurons, Kcna2 antisense-treated group (Kcna2 downregulated)", "result": "92.3 % of current"}, {"measurement": "total voltage-gated potassium current retained at +50 mV after 100 nM MTX, large DRG neurons, control group (whole-cell voltage clamp)", "result": "81.7 % of current"}, {"measurement": "total voltage-gated potassium current retained at +50 mV after 100 nM MTX, medium DRG neurons, Kcna2 antisense-treated group (Kcna2 downregulated)", "result": "94.9 % of current"}, {"measurement": "total voltage-gated potassium current retained at +50 mV after 100 nM MTX, medium DRG neurons, control group (whole-cell voltage clamp)", "result": "85.1 % of current"}]}]}
